Data from paper PMC9495943, “Recombinant Expression of Archaeal Superoxide Dismutases in Plant Cell Cultures: A Sustainable Solution with Potential Application in the Food Industry” (Antioxidants, 2022).

Target: the molecule itself
Test: SEC; Superdex 200 calibrated with standard protein markers; 50 mM Tris-HCl pH 7.5, 50 mM NaCl; partially purified SOD (ultrafiltration retentate of transformed tomato cell extract) loaded; apparent native mass compared with the theoretical mass of a homodimer

B1: Superoxide dismutase (Mn/Fe-dependent SOD) from Saccharolobus solfataricus P2 (enzyme, UniProt P80857 1-211, looked up)
chain: MTLQIQFKKYELPPLPYKIDALEPYISKDIIDVHYNGHHKGYVNGANSLLERLEKVVKGDLQTGQYDIQGIIRGLTFNINGHKLHALYWENMAPSGKGGGKPGGALADLINKQYGSFDRFKQVFTETANSLPGTGWAVLYYDTESGNLQIMTFENHFQNHIAEIPIILILDEFEHAYYLQYKNKRADYVNAWWNVVNWDAAEKKLQKYLTK
notes: Mn/Fe-dependent superoxide dismutase of Saccharolobus solfataricus P2; whole CDS (636 bp) amplified from genomic DNA and expressed in tomato cells; subunit of approximately 24 kDa; ORF cloned into the NcoI-XbaI sites of pCK-EGFP, then into pBI121; No tag is mentioned; also called SODSs; sodSs product
stoichiometry N: 2
